Laboratory results from patent publication US11795460B2, “Compositions and methods for TTR gene editing and treating ATTR amyloidosis” (Intellia Therapeutics, Inc., priority 2017, dated 2023).
Strand notation (5' to 3'): a small letter for the sugar, then the base; units joined by * are phosphorothioate-linked, units joined directly phosphodiester-linked; [ ] holds rarer units or linkages, { } end groups; capitals alone tell only the bases. m = 2'-O-methyl; r = 2'-OH (RNA)

B1: G000482: TTR sgRNA modified sequence, Human, SEQ ID No. 89; guide sequence of CR003365 (nucleic acid)
guide: mU*mG*mU*rArGrArArGrGrGrArUrArUrArCrArArArGrGrUrUrUrUrArGrAmGmCmUmAmGmAmAmAmUmAmGmCrArArGrUrUrArArArArUrArArGrGrCrUrArGrUrCrCrGrUrUrArUrCrAmAmCmUmUmGmAmAmAmAmAmGmUmGmGmCmAmCmCmGmAmGmUmCmGmGmUmGmCmU*mU*mU*mU
B2: G000481: TTR sgRNA modified sequence, Human, SEQ ID No. 88; guide sequence of CR003345 (nucleic acid)
guide: mU*mC*mU*rArGrArArCrUrUrUrGrArCrCrArUrCrArGrGrUrUrUrUrArGrAmGmCmUmAmGmAmAmAmUmAmGmCrArArGrUrUrArArArArUrArArGrGrCrUrArGrUrCrCrGrUrUrArUrCrAmAmCmUmUmGmAmAmAmAmAmGmUmGmGmCmAmCmCmGmAmGmUmCmGmGmUmGmCmU*mU*mU*mU
B3: G000490: TTR sgRNA modified sequence, Human, SEQ ID No. 97; guide sequence of CR003366 (nucleic acid)
guide: mA*mA*mA*rUrArGrArCrArCrCrArArArUrCrUrUrArCrGrUrUrUrUrArGrAmGmCmUmAmGmAmAmAmUmAmGmCrArArGrUrUrArArArArUrArArGrGrCrUrArGrUrCrCrGrUrUrArUrCrAmAmCmUmUmGmAmAmAmAmAmGmUmGmGmCmAmCmCmGmAmGmUmCmGmGmUmGmCmU*mU*mU*mU
B4: G000495: TTR sgRNA modified sequence, Human, SEQ ID No. 102; guide sequence of CR003343 (nucleic acid)
guide: mC*mA*mG*rArGrGrArCrArCrUrUrGrGrArUrUrCrArCrGrUrUrUrUrArGrAmGmCmUmAmGmAmAmAmUmAmGmCrArArGrUrUrArArArArUrArArGrGrCrUrArGrUrCrCrGrUrUrArUrCrAmAmCmUmUmGmAmAmAmAmAmGmUmGmGmCmAmCmCmGmAmGmUmCmGmGmUmGmCmU*mU*mU*mU
B5: G000484: TTR sgRNA modified sequence, Human, SEQ ID No. 91; guide sequence of CR003367 (nucleic acid)
guide: mA*mG*mA*rCrArCrCrArArArUrCrUrUrArCrUrGrGrArGrUrUrUrUrArGrAmGmCmUmAmGmAmAmAmUmAmGmCrArArGrUrUrArArArArUrArArGrGrCrUrArGrUrCrCrGrUrUrArUrCrAmAmCmUmUmGmAmAmAmAmAmGmUmGmGmCmAmCmCmGmAmGmUmCmGmGmUmGmCmU*mU*mU*mU
B6: G000491: TTR sgRNA modified sequence, Human, SEQ ID No. 98; guide sequence of CR003338 (nucleic acid)
guide: mA*mU*mA*rCrCrArGrUrCrCrArGrCrArArGrGrCrArGrGrUrUrUrUrArGrAmGmCmUmAmGmAmAmAmUmAmGmCrArArGrUrUrArArArArUrArArGrGrCrUrArGrUrCrCrGrUrUrArUrCrAmAmCmUmUmGmAmAmAmAmAmGmUmGmGmCmAmCmCmGmAmGmUmCmGmGmUmGmCmU*mU*mU*mU
B7: G000493: TTR sgRNA modified sequence, Human, SEQ ID No. 100; guide sequence of CR003368 (nucleic acid)
guide: mA*mA*mG*rUrGrCrCrUrUrCrCrArGrUrArArGrArUrUrGrUrUrUrUrArGrAmGmCmUmAmGmAmAmAmUmAmGmCrArArGrUrUrArArArArUrArArGrGrCrUrArGrUrCrCrGrUrUrArUrCrAmAmCmUmUmGmAmAmAmAmAmGmUmGmGmCmAmCmCmGmAmGmUmCmGmGmUmGmCmU*mU*mU*mU
B8: G000483: TTR sgRNA modified sequence, Human, SEQ ID No. 90; guide sequence of CR005298 (nucleic acid)
guide: mU*mC*mC*rArCrUrCrArUrUrCrUrUrGrGrCrArGrGrArGrUrUrUrUrArGrAmGmCmUmAmGmAmAmAmUmAmGmCrArArGrUrUrArArArArUrArArGrGrCrUrArGrUrCrCrGrUrUrArUrCrAmAmCmUmUmGmAmAmAmAmAmGmUmGmGmCmAmCmCmGmAmGmUmCmGmGmUmGmCmU*mU*mU*mU
B9: G000485: TTR sgRNA modified sequence, Human, SEQ ID No. 92; guide sequence of CR003336 (nucleic acid)
guide: mC*mC*mU*rCrCrUrCrUrGrCrCrUrUrGrCrUrGrGrArCrGrUrUrUrUrArGrAmGmCmUmAmGmAmAmAmUmAmGmCrArArGrUrUrArArArArUrArArGrGrCrUrArGrUrCrCrGrUrUrArUrCrAmAmCmUmUmGmAmAmAmAmAmGmUmGmGmCmAmCmCmGmAmGmUmCmGmGmUmGmCmU*mU*mU*mU
B10: G000489: TTR sgRNA modified sequence, Human, SEQ ID No. 96; guide sequence of CR003344 (nucleic acid)
guide: mU*mU*mU*rGrArCrCrArUrCrArGrArGrGrArCrArCrUrGrUrUrUrUrArGrAmGmCmUmAmGmAmAmAmUmAmGmCrArArGrUrUrArArArArUrArArGrGrCrUrArGrUrCrCrGrUrUrArUrCrAmAmCmUmUmGmAmAmAmAmAmGmUmGmGmCmAmCmCmGmAmGmUmCmGmGmUmGmCmU*mU*mU*mU
B11: G000492: TTR sgRNA modified sequence, Human, SEQ ID No. 99; guide sequence of CR003342 (nucleic acid)
guide: mC*mU*mU*rCrUrCrUrArCrArCrCrCrArGrGrGrCrArCrGrUrUrUrUrArGrAmGmCmUmAmGmAmAmAmUmAmGmCrArArGrUrUrArArArArUrArArGrGrCrUrArGrUrCrCrGrUrUrArUrCrAmAmCmUmUmGmAmAmAmAmAmGmUmGmGmCmAmCmCmGmAmGmUmCmGmGmUmGmCmU*mU*mU*mU

Legend:
TTR [1] = assay: TTR editing in primary cyno hepatocytes treated with LNP formulated Spy Cas9 mRNA (SEQ ID NO: 2) and sgRNAs (Tables 17, 18); type: cell-based, cynomolgus monkey; details: Table 17, LNP formulated Spy Cas9 mRNA (SEQ ID NO: 2) and sgRNA, 12.5 ng mRNA, 3.9 nM sgRNA, 72 hours
Method in brief: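 Primary cynomolgus hepatocytes, 24 h after plating, dosed with LNPs (N:P about 4.5 or 6, mRNA:gRNA 1:1 by weight) pre-incubated 5 min at 37° C. in medium with 6% cyno serum, in an 8-point 2-fold dose response. Editing = indel/substitution reads over total reads by amplicon MiSeq sequencing.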

TTR [2] = assay: TTR editing in primary human hepatocytes transfected with Spy Cas9 mRNA and sgRNAs (Table 13); type: cell-based; details: primary human hepatocytes co-transfected with Spy Cas9 mRNA (SEQ ID NO:2) and sgRNAs, 12.5 nM
Description: (§1) Primary liver hepatocytes. Primary human liver hepatocytes (PHH) and primary cynomolgus liver hepatocytes (PCH) (Gibco) were cultured per the manufacturer's protocol (Invitrogen, protocol 11.28.2012). In brief, the cells were thawed and resuspended in hepatocyte thawing medium with supplements (Gibco, Cat. CM7000) followed by centrifugation at 100 g for 10 minutes for human and 80 g for 4 minutes for cyno. The supernatant was discarded and the pelleted cells resuspended in hepatocyte plating medium plus supplement pack (Invitrogen, Cat. A1217601 and CM3000). Cells were counted and plated on Bio-coat collagen I coated 96-well plates (ThermoFisher, Cat. 877272) at a density of 33,000 cells/well for human or 60,000 cells/well for cyno (or 65,000 cells/well when assaying effects on TTR protein, described further below). Plated cells were allowed to settle and adhere for 6 or 24 hours in a tissue culture incubator at 37° C. and 5% CO2 atmosphere. After incubation cells were checked for monolayer formation and media was replaced with hepatocyte culture medium with serum-free supplement pack (Invitrogen, Cat. A1217601 and CM4000).
Lipofectamine RNAiMax (ThermoFisher, Cat. 13778150) based transfections were conducted as per the manufacturer's protocol. Cells were sequentially transfected with a lipoplex containing Spy Cas9 mRNA (100 ng), Lipofectamine RNAiMax (0.4 […]) and tracer RNA ([…]), Lipofectamine RNAiMax (0.4 μL/well) and OptiMem.
Transfected cells were harvested post-transfection at 24, 48, or 72 hours. The genomic DNA was extracted from each well of a 96-well plate using 50 μL/well BuccalAmp DNA Extraction solution (Epicentre, Cat. QE09050) per manufacturer's protocol. All DNA samples were subjected to PCR and subsequent NGS analyses, as described herein.
(§2) To quantitatively determine the efficiency of editing at the target location in the genome, sequencing was utilized to identify the presence of insertions and deletions introduced by gene editing.
(§3) Primers were designed around the target site within the gene of interest (e.g. TTR), and the genomic area of interest was amplified.
(§4) Additional PCR was performed per the manufacturer's protocols (Illumina) to add chemistry for sequencing. The amplicons were sequenced on an Illumina MiSeq instrument. The reads were aligned to a reference genome (e.g., the human reference genome (hg38), the cynomologus reference genome (mf5), the rat reference genome (rn6), or the mouse reference genome (mm10)) after eliminating those having low quality scores. The resulting files containing the reads were mapped to the reference genome (BAM files), where reads that overlapped the target region of interest were selected and the number of wild type reads versus the number of reads which contain an insertion, substitution, or deletion was calculated.
(§5) The editing percentage (e.g., the “editing efficiency” or “percent editing” or “indel frequency”) is defined as the total number of sequence reads with insertions/deletions (“indels”) or substitutions over the total number of sequence reads, including wild type.
Guides in modified sgRNA format targeting human and/or cyno TTR were delivered to primary human hepatocytes and primary cyno hepatocytes as described in Example 1. Percent editing was determined for crRNAs comprising each guide sequence across each cell type and the guide sequences were then rank ordered based on highest % edit. The screening data for the guide sequences in Table 2 in both cell lines are listed below (Table 12 through 15).

TTR [3] = assay: TTR editing in primary human hepatocytes treated with LNP formulated Spy Cas9 mRNA (SEQ ID NO: 2) and sgRNAs (Table 16); type: cell-based; details: LNP formulated Spy Cas9 mRNA (SEQ ID NO: 2) and sgRNA, 72 hours
Description: as §1
In general, the lipid nanoparticle components were dissolved in 100% ethanol with the lipid component of various molar ratios. The RNA cargos were dissolved in 25 mM citrate, 100 mM NaCl, pH 5.0, resulting in a concentration of RNA cargo of approximately 0.45 mg/mL. The LNPs were formulated with a lipid amine to RNA phosphate (N:P) molar ratio of about 4.5 or about 6, with the ratio of mRNA to gRNA at 1:1 by weight.
The LNPs were formed by microfluidic mixing of the lipid and RNA solutions using a Precision Nanosystems NanoAssemblr™ Benchtop Instrument, according to the manufacturer's protocol. A 2:1 ratio of aqueous to organic solvent was maintained during mixing using differential flow rates. After mixing, the LNPs were collected, diluted in water (approximately 1:1 v/v), held for 1 hour at room temperature, and further diluted with water (approximately 1:1 v/v) before final buffer exchange. The final buffer exchange into 50 mM Tris, 45 mM NaCl, 5% (w/v) sucrose, pH 7.5 (TSS) was completed with PD-10 desalting columns (GE). If required, formulations were concentrated by centrifugation with Amicon 100 kDa centrifugal filters (Millipore). The resulting mixture was then filtered using a 0.2 μm sterile filter. The final LNP was stored at −80° C. until further use.
as §2, §3, §4, §5
Lipid nanoparticle formulations of modified sgRNAs targeting human TTR and the cyno matched sgRNA sequences were tested on primary human hepatocytes and primary cyno hepatocytes in a dose response curve. Primary human and cyno hepatocytes were plated as described in Example 1. […]

| Molecule | 12.5 ng mRNA, 3.9 nM sgRNA Avg % Edit (TTR [1]) | Avg % Deletion (TTR [2]) | Avg % Edit (TTR [2]) | Avg % Insert (TTR [2]) | 12.5 ng mRNA, 3.9 nM sgRNA Avg % Edit (TTR [3]) |
| --- | --- | --- | --- | --- | --- |
| B1 | 26.13% | 13.25% | 40.93% | 27.70% | 19.10% |
| B2 | 49.20% | 19.77% | 34.30% | 14.62% | 24.37% |
| B3 | 15.23% | 5.38% | 24.72% | 19.38% | 10.53% |
| B4 | 0.73% | 4.45% | 47.77% | 43.40% | 23.97% |
| B5 | 0.10% | 29.48% | 43.37% | 13.98% | 16.67% |
| B6 | 6.37% | 3.60% | 45.93% | 42.42% | 31.60% |
| B7 | 7.63% | 0.97% | 11.55% | 10.65% | 7.33% |
| B8 | 0.73% | 23.85% | 27.82% | 4.05% | 7.37% |
| B9 | 1.43% | 1.97% | 30.82% | 28.87% | 14.23% |
| B10 | 31.87% | 10.28% | 24.25% | 14.17% | 16.85% |
| B11 | 0.70% | 2.22% | 34.65% | 32.45% | 15.87% |
